# Laboratory results taken from article PMC9530591.
# Biological target: HA1-trimer (influenza A virus H1N1 A/California/07/2009)
# Assay: AUC
substance,measurement,value
HA1-trimer,stoichiometry N,3
